{"source": "paper PMC9968394", "binders": {"B1": {"name": "recombinant ncOGT protein (O-GlcNAc transferase) (enzyme)", "chain": "MASSVGNVADSTEPTKRMLSFQGLAELAHREYQAGDFEAAERHCMQLWRQEPDNTGVLLLLSSIHFQCRRLDRSAHFSTLAIKQNPLLAEAYSNLGNVYKERGQLQEAIEHYRHALRLKPDFIDGYINLAAALVAAGDMEGAVQAYVSALQYNPDLYCVRSDLGNLLKALGRLEEAKACYLKAIETQPNFAVAWSNLGCVFNAQGEIWLAIHHFEKAVTLDPNFLDAYINLGNVLKEARIFDRAVAAYLRALSLSPNHAVVHGNLACVYYEQGLIDLAIDTYRRAIELQPHFPDAYCNLANALKEKGSVAEAEDCYNTALRLCPTHADSLNNLANIKREQGNIEEAVRLYRKALEVFPEFAAAHSNLASVLQQQGKLQEALMHYKEAIRISPTFADAYSNMGNTLKEMQDVQGALQCYTRAIQINPAFADAHSNLASIHKDSGNIPEAIASYRTALKLKPDFPDAYCNLAHCLQIVCDWTDYDERMKKLVSIVADQLEKNRLPSVHPHHSMLYPLSHGFRKAIAERHGNLCLDKINVLHKPPYEHPKDLKLSDGRLRVGYVSSDFGNHPTSHLMQSIPGMHNPDKFEVFCYALSPDDGTNFRVKVMAEANHFIDLSQIPCNGKAADRIHQDGIHILVNMNGYTKGARNELFALRPAPIQAMWLGYPGTSGALFMDYIITDQETSPAEVAEQYSEKLAYMPHTFFIGDHANMFPHLKKKAVIDFKSNGHIYDNRIVLNGIDLKAFLDSLPDVKIVKMKCPDGGDNADSSNTALNMPVIPMNTIAEAVIEMINRGQIQITINGFSISNGLATTQINNKAATGEEVPRTIIVTTRSQYGLPEDAIVYCNFNQLYKIDPSTLQMWANILKRVPNSVLWLLRFPAVGEPNIQQYAQNMGLPQNRIIFSPVAPKEEHVRRGQLADVCLDTPLCNGHTTGMDVLWAGTPMVTMPGETLASRVAASQLTCLGCLELIAKNRQEYEDIAVKLGTDLEYLKKVRGKVWKQRISSPLFNTKQYTMELERLYLQMWEHYAAGNKPDHMIKPVEVTESA"}}, "assay_in_all_cases": "SPR; Biacore; anti-OGT VNARs diluted to 100 nM; recombinant ncOGT in PBS at 50, 100, 200, 400 and 800 nM introduced successively; binding 120 s, dissociation 200 s in PBS; Langmuir model fit; who was immobilised is not said", "key": {"[1]": {"target": "anti-OGT VNAR 3F7 (Chiloscyllium plagiosum (whitespotted bambooshark))"}, "[2]": {"target": "anti-OGT VNAR 4G2 (Chiloscyllium plagiosum (whitespotted bambooshark))"}, "[3]": {"target": "anti-OGT VNAR 2D9 (Chiloscyllium plagiosum (whitespotted bambooshark))"}}}
{"binder": "B1", "values": [{"measurement": "Kd", "setting": "[1]", "result": 53.4, "unit": "nM"}, {"measurement": "koff", "setting": "[1]", "result": 0.00106, "unit": "s⁻¹"}, {"measurement": "kon", "setting": "[1]", "result": 19800, "unit": "M⁻¹ s⁻¹"}, {"measurement": "Kd", "setting": "[2]", "result": 89.7, "unit": "nM"}, {"measurement": "koff", "setting": "[2]", "result": 0.00076, "unit": "s⁻¹"}, {"measurement": "Kd", "setting": "[3]", "result": 35.5, "unit": "nM"}, {"measurement": "koff", "setting": "[3]", "result": 0.000675, "unit": "s⁻¹"}, {"measurement": "kon", "setting": "[3]", "result": 19000, "unit": "M⁻¹ s⁻¹"}]}
